Laboratory results published in patent publication US20110076232A1 (published 2011).
Blank lines part the entries; values can stand above or below the molecule they belong to. Ends that are not written are not given here.

Key:
[1] = target: wtEGFR-FLAG (N-terminally FLAG-tagged wild-type EGFR on Ba/F3 cells) (human) (UniProt P00533); test: FACS median fluorescence, Ba/F3 cells; reference anti-FLAG M2
[2] = target: wild-type epidermal growth factor receptor (wtEGFR) (human) (UniProt P00533); test: Scatchard, A431 cells
[3] = target: C271A/C283A-EGFR (full length, on Ba/F3 cells) (human) (UniProt P00533); test: FACS median fluorescence, Ba/F3 cells, four clones; reference anti-FLAG M2
[4] = target: T1, 15N-labelled EGFR287-302 peptide with methionine mutated to leucine (human, not fully specified (bridges); cysteine pairing not given here; also: 15N-labelled (residues not given here)); test: NMR, perturbation of 15N HSQC spectra
T1 peptide: CGADSYELEEDGVRKC

[5] = target: T2, Peptide C: LEEKKGNYVVTDH(K-Biot)-OH (biotin on the added C-terminal Lys (K-Biot)); test: BIAcore, Peptide C on streptavidin chip
T2 peptide: LEEKKGNYVVTDHK

[6] = target: T3, EGFR peptide 287-302 (806 peptide epitope) (human, not fully specified (bridges); printed as 287CGADSYEMEEDGVRKC302; cysteine pairing not given here); test: BIAcore, immobilised peptide 287-302, antibody 200 nM
T3 peptide: CGADSYEMEEDGVRKC

binding result [5]: no binding (tested: 100 nM)
B2: monoclonal antibody 806 (mAb806) (antibody, V domains shown)
VH: DVQLQESGPSLVKPSQSLSLTCTVTGYSITSDFAWNWIRQFPGNKLEWMGYISYSGNTRYNPSLKSRISITRDTSKNQFFLQLNSVTIEDTATYYCVTAGRGFPYWGQGTLVTVSA
VL: DILMTQSPSSMSVSLGDTVSITCHSSQDINSNIGWLQQRPGKSFKGLIYHGTNLDDEVPSRFSGSGSGADYSLTISSLESEDFADYYCVQYAQFPWTFGGGTKLEIKR
notes: murine IgG2b; also called m806

maximal binding (RU) [6]: 800 RU
B3: monoclonal antibody 1133 (mAb1133) (antibody, V domains shown)
VH: DVQLQGSGPSLVKPSQSLSLTCTVTGYSITSDYAWNWIRQFPGNKLEWMGYISYSGNTRYNPSLRSRISITRDTSKNQFFLQLNSVTTEDTATYYCATAGRGFPYWGQGTLVTVSA
VL: DILMTQSPSSMSVSLGDTVNITCHSSQDINSNIGWLQQKPGKSFKGLIYHGTNLDDGVPSRFSGSGSGADYSLTISSLESEDFADYYCVQYGQFPWTFGGGTKLEIKR
notes: murine IgG2a

Further lines, the molecule ahead of its results:

Molecule: monoclonal antibody 528
ratio of antibody binding mAb 528/M2 [1]: 1.37
binding sites per cell (sites per cell) [2]: 2e+06
receptors per cell (receptors per cell) [2]: 2e+06
ratio of antibody binding mAb 528/M2 [3]: 1.08

B1: Fab fragment of mAb806 (Fab, V domains shown)
VH: DVQLQESGPSLVKPSQSLSLTCTVTGYSITSDFAWNWIRQFPGNKLEWMGYISYSGNTRYNPSLKSRISITRDTSKNQFFLQLNSVTIEDTATYYCVTAGRGFPYWGQGTLVTVSA
VL: DILMTQSPSSMSVSLGDTVSITCHSSQDINSNIGWLQQRPGKSFKGLIYHGTNLDDEVPSRFSGSGSGADYSLTISSLESEDFADYYCVQYAQFPWTFGGGTKLEIKR
notes: papain Fab of the intact mAb; also called Fab806
binding result [4]: binds
